Target: catalytic domain of MMP-14 (MMP-14CAT) (human)
Experiment: enzyme inhibition assay

wild-type N-terminal domain of TIMP2 (N-TIMP2) (domain or fragment)
Ki: 0.76 nM

— paper PMC7617879
